To fix the notation:
B1: Clone 4b (protein)
chain: MSRLDKSKVINSALELLNEVGIEGLTTRKLAQKLGVEQPTLYWHVKNKRALLDALAVEILARHHDYSLPAAGESWQSFLRNNAMSFRRALLRYRDRAKVHLGTRPDEKQYDTVETQLRFMTENGFSLRDGLYAISAVSHFTLGAVLEQQEHTAALTDRPAAPDENLPPLLREALQIMDSDDGEQAFLHGLESLIRGFEVQLTALLQIV
modifications: revTetR4b
B2: Clone 11 (protein)
chain: B1 chain with R96G, V99E
modifications: revTetR11
B3: TetRrevAF2/5: revTetR(BD) L14R E!9E D95H L101P (protein)
chain: B1 chain with L14R, D95H, R96G, L101P
modifications: Modified tetracycline repressor
notes: revTetR(BD) L14R E!9E D95H L101P
B4: TetRrevAD3/2: revTetR(BD) A56P E58H A61A H63Y (protein)
chain: B1 chain with A56P, E58H, H63Y, R96G
modifications: Modified tetracycline repressor
notes: revTetR(BD) A56P E58H A61A H63Y
B5: TetRrevAF1/7: revTetR(BD) G96R L101I (protein)
chain: B1 chain with L101I
modifications: Modified tetracycline repressor
notes: revTetR(BD) G96R L101I
B6: TetRrevAD1/2: revTetR(BD) N18Y L52L D53Y A54A I59T (protein)
chain: B1 chain with N18Y, D53Y, I59T, R96G
modifications: Modified tetracycline repressor
notes: revTetR(BD) N18Y L52L D53Y A54A I59T
B7: TetRrevAF1/8: revTetR(BD) G24G Y93N L101F G102D (protein)
chain: B1 chain with Y93N, R96G, L101F, G102D
modifications: Modified tetracycline repressor
notes: revTetR(BD) G24G Y93N L101F G102D
B8: TetRrevAF1/11: revTetR(BD) L14I V20V I22L R94H A97A V99E (protein)
chain: B1 chain with L14I, I22L, R94H, R96G, V99E
modifications: Modified tetracycline repressor
notes: revTetR(BD) L14I V20V I22L R94H A97A V99E
B9: TetRrevAF1/3: revTetR(BD) G24G D95A G96R (protein)
chain: B1 chain with D95A
modifications: Modified tetracycline repressor
notes: revTetR(BD) G24G D95A G96R
B10: TetRrevAF1/4: revTetR(BD) N18K D95V G96V A97V (protein)
chain: B1 chain with N18K, D95V, R96V, A97V
modifications: Modified tetracycline repressor
notes: revTetR(BD) N18K D95V G96V A97V
B11: TetRrevAtc4-10: revTetR(BD) I59N L60F A61G (protein)
chain: B1 chain with I59N, L60F, A61G, R96G
modifications: Modified tetracycline repressor
notes: revTetR(BD) I59N L60F A61G
B12: TetRrevAD2/12: revTetR(BD) E23H D53Y A56A E58Q I59T (protein)
chain: B1 chain with E23H, D53Y, E58Q, I59T, R96G
modifications: Modified tetracycline repressor
notes: revTetR(BD) E23H D53Y A56A E58Q I59T
B13: TetRrevAF2/7: revTetR(BD) Y93C D95E A97T (protein)
chain: B1 chain with Y93C, D95E, R96G, A97T
modifications: Modified tetracycline repressor
notes: revTetR(BD) Y93C D95E A97T
B14: TetRrevAD1/6: revTetR(BD) N18Y E23V D53A A54S L55L A56S A61T H63Y (protein)
chain: B1 chain with N18Y, E23V, D53A, A54S, A56S, A61T, H63Y, R96G
modifications: Modified tetracycline repressor
notes: revTetR(BD) N18Y E23V D53A A54S L55L A56S A61T H63Y
B15: TetRrevAD2/4: revTetR(BD) L17F N18R D53N I59M A61T (protein)
chain: B1 chain with L17F, N18R, D53N, I59M, A61T, R96G
modifications: Modified tetracycline repressor
notes: revTetR(BD) L17F N18R D53N I59M A61T
B16: TetRrevAD2/13: revTetR(BD) E19D V20E E23K V57L I59N L60F A61A (protein)
chain: B1 chain with E19D, V20E, E23K, V57L, I59N, L60F, R96G
modifications: Modified tetracycline repressor
notes: revTetR(BD) E19D V20E E23K V57L I59N L60F A61A
B17: TetRrevAD2/2: revTetR(BD) L14I G21R A56V (protein)
chain: B1 chain with L14I, G21R, A56V, R96G
modifications: Modified tetracycline repressor
notes: revTetR(BD) L14I G21R A56V
B18: TetRrevAF1/5: revTetR(BD) L14V G24G Y93D R94G D95G (protein)
chain: B1 chain with L14V, Y93D, R94G, D95G, R96G
modifications: Modified tetracycline repressor
notes: revTetR(BD) L14V G24G Y93D R94G D95G
B19: TetRrevAD2/6: revTetR(BD) N18Y G21E E23K (protein)
chain: B1 chain with N18Y, G21E, E23K, R96G
modifications: Modified tetracycline repressor
notes: revTetR(BD) N18Y G21E E23K

Positions count from the first letter of the chain named. Names and notes keep the numbering of the source.

The subject of the first data set is tet operator sequence. Nature of the data set: β-galactosidase activity of a tetracycline-regulated promoter in transformed E. coli with revTetR, in the presence and absence of anhydrotetracycline (atc). The note with it: 28° C. Type of data set: cell-based, Escherichia coli. On the procedure:
The relative activity of revTetR repressors was determined at 28° C. and 37° C. for each clone by measuring β-galactosidase activity of a tetracycline-regulated promoter in transformed Escherichia coli in the presence and absence of the tetracycline analog, anhydrotetracycline (atc). The relative β-galactosidase activity was measured in standard Miller units and is presented as the percent of maximal expression as measured in the absence of Tet repressor. […] With respect to each mutant, as well as the wild-type controls, FIG. 2 provides two horizontal bars; the upper horizontal bar represents the level of β-galactosidase activity in the absence of anhydrotetracycline (−atc) while the lower horizontal bar represents the level of β-galactosidase activity in the presence of anhydrotetracycline (+atc).
The pool of mutated Tet repressors was cloned into plasmid pWH1411 (Baumeister et al., 1992, Proteins: Struct. Funct. Genet. 14: 168-77), which carries a TetR(B) gene, to provide a TetR(BD) chimera that included, as the amino-terminal portion, amino acid residues 1 to 50 of the TetR(B) gene and, as the carboxyl-terminal portion, amino acid residues 51 to 208 of the TetR(D) gene. The resulting plasmid pool was screened in a genetic assay which positively selects for a functional interaction between a Tet repressor and its cognate operator using E. coli strain WH207(λWH25) (the construction of this strain is described in detail in Wissmann et al., (1991) Genetics 128: 225-32). In this E. coli strain, tet operators direct the expression of divergently arranged β-galactosidase (lacZ) and Lac repressor (lacI) genes and the lac regulatory region directs the expression of a galactokinase (galK) gene on plasmid pWH414. Binding of Tet repressors to tet operators turns off transcription of the lacI and lacZ genes. The absence of Lac repressor allows for expression of the galK gene, which enables the E. coli strain to use galactose as a sole carbon source, which serves as one marker. The lacZ^− phenotype serves as a second marker. Thus, bacteria containing Tet repressors which bind to tet operators, have a Gal^+, lacZ^− phenotype. Bacteria containing wild-type Tet repressors have a Gal^+, lacZ^− phenotype in the absence of tetracycline. Modified “reverse” Tet repressors (revTetR) were selected based upon a Gal^+, lacZ^− phenotype in the presence of tetracycline.
The ability of each revTetR clone to bind to its cognate tet operator sequence and regulate transcription in a prokaryotic organism, Escherichia coli, in the presence and absence of a tetracycline analog (anhydrotetracycline, atc) was determined (Table 3, FIG. 2). The relative ratios of non-repressed to repressed levels of transcription for the 15 clones range from about 1.4-fold to about 50-fold at 28° C. and from about 1.3-fold to 40-fold at 37° C. For example, clone 4b comprising an amino acid substitution of glutamic acid for glycine at position 96 (e.g., SEQ ID NO. 24) repressed transcription 19-fold at 37° C. but to a less extent at 28° C. (5.7-fold, Table 3). Furthermore, clones 14, 5a and 7 comprising the arginine for glycine substitution at position 96 and further comprising a substitution or substitutions of serine for threonine at position 103 and valine for glutamic acid at position 114; leucine for proline at position 159; or glutamine to histidine at position 188, respectively, have pronouncedly different activities.
wherein each underlined base was present in approximately 85% of the oligonucleotides, while the remaining approximately 15% of the oligonucleotides contained one of the other three, non-wild type bases at that position. Similar mutagenic, partially randomized oligonucleotides were prepared for mutagenesis of the coding regions for amino acids 14-25 and 93-102. It was predicted that, according to a binomial distribution, each oligonucleotide would contain three to four mutations. […]
For the molecule B1, the “repression of transcription (ratio of non-repressed to repressed levels of transcription)” value was determined as 5.7 fold.

With B2, the “repression of transcription (ratio of non-repressed to repressed levels of transcription)” value is recorded as 18 fold.

The same data set, now with this note: 28° C.; E. coli; absence vs presence of anhydrotetracycline.
Regarding B1, the “Relative Activity of revTetR repressors, 28° C. ratio (non-repressed to repressed levels of transcription)” value is listed as 5.7.

With B2, the “Relative Activity of revTetR repressors, 28° C. ratio (non-repressed to repressed levels of transcription)” value was determined as 18.1.

Still in this data set, the particulars now being: 37° C.
As for B1, the “repression of transcription (ratio of non-repressed to repressed levels of transcription)” value came out at 19 fold.

With B2, the “repression of transcription (ratio of non-repressed to repressed levels of transcription)” value came to 41 fold.

The data set is the same for the next values; noted with them: 37° C.; E. coli; absence vs presence of anhydrotetracycline.
As to B1, the “Relative Activity of revTetR repressors, 37° C. ratio (non-repressed to repressed levels of transcription)” value is listed as 19.0.

Turning to B2, the “Relative Activity of revTetR repressors, 37° C. ratio (non-repressed to repressed levels of transcription)” value stood at 41.1.

The same data set, now with this note: RevTetR isolate cultured in the absence of anhydrotetracycline (ATC).
On to B3, for which the “β-Galactosidase Activity, Cultured Without ATC” value is reported as 97.8373.

In the case of B4, the “β-Galactosidase Activity, Cultured Without ATC” value is 60.3284.

Regarding B5, the “β-Galactosidase Activity, Cultured Without ATC” value is on record as 72.199.

B6: the “β-Galactosidase Activity, Cultured Without ATC” value is reported as 84.85.

With B7, the “β-Galactosidase Activity, Cultured Without ATC” value was found to be 42.088.

With B8, the “β-Galactosidase Activity, Cultured Without ATC” value is recorded as 96.2362.

As for B9, the “β-Galactosidase Activity, Cultured Without ATC” value amounted to 59.773.

In the case of B10, the “β-Galactosidase Activity, Cultured Without ATC” value amounted to 81.2613.

On to B11, for which the “β-Galactosidase Activity, Cultured Without ATC” value was 69.401.

Regarding B12, the “β-Galactosidase Activity, Cultured Without ATC” value is 73.5981.

Take B13: the “β-Galactosidase Activity, Cultured Without ATC” value amounted to 70.3163.

Consider B14, for which the “β-Galactosidase Activity, Cultured Without ATC” value is listed as 85.6043.

Turning to B15, the “β-Galactosidase Activity, Cultured Without ATC” value was 32.2603.

Consider B16, for which the “β-Galactosidase Activity, Cultured Without ATC” value was 71.1255.

In the case of B17, the “β-Galactosidase Activity, Cultured Without ATC” value stood at 94.968.

Turning to B18, the “β-Galactosidase Activity, Cultured Without ATC” value turned out to be 102.015.

As for B19, the “β-Galactosidase Activity, Cultured Without ATC” value stood at 89.5374.

The same data set, now with this note: RevTetR isolate cultured in the presence of anhydrotetracycline (ATC).
For the molecule B3, the “β-Galactosidase Activity, Cultured With ATC” value is recorded as 2.4067.

In the case of B4, the “β-Galactosidase Activity, Cultured With ATC” value is listed as 3.5891.

In the case of B5, the “β-Galactosidase Activity, Cultured With ATC” value was 2.2753.

In the case of B6, the “β-Galactosidase Activity, Cultured With ATC” value was 1.6137.

Regarding B7, the “β-Galactosidase Activity, Cultured With ATC” value is on record as 1.1643.

With B8, the “β-Galactosidase Activity, Cultured With ATC” value was determined as 1.1578.

Regarding B9, the “β-Galactosidase Activity, Cultured With ATC” value is listed as 1.2536.

As for B10, the “β-Galactosidase Activity, Cultured With ATC” value came out at 13.459.

As for B11, the “β-Galactosidase Activity, Cultured With ATC” value is given as 11.275.

Turning to B12, the “β-Galactosidase Activity, Cultured With ATC” value was 1.2806.

Regarding B13, the “β-Galactosidase Activity, Cultured With ATC” value came to 2.8977.

For the molecule B14, the “β-Galactosidase Activity, Cultured With ATC” value is 2.5079.

Regarding B15, the “β-Galactosidase Activity, Cultured With ATC” value is recorded as 1.0068.

With B16, the “β-Galactosidase Activity, Cultured With ATC” value was 1.3355.

For the molecule B17, the “β-Galactosidase Activity, Cultured With ATC” value is listed as 5.2312.

As for B18, the “β-Galactosidase Activity, Cultured With ATC” value is listed as 1.1988.

On to B19, for which the “β-Galactosidase Activity, Cultured With ATC” value was 3.8811.

The values above are taken from patent US20030186281A1, “Modified tetracycline repressor protein compositions and methods of use” (priority 2001, published 2003).
